Experiment [1] has as its target T1, human GITR on 293F‐hGITR cells (Homo sapiens (Human)., UniProt Q9Y5U5-1). The experiment is described as follows: cell-based or functional assay.
Experiment [2] deals with T2, hGITR ECD hFc (Homo sapiens (Human)., UniProt Q9Y5U5, Thr45Ala).
T2 construct: human GITR (glucocorticoid-induced TNF receptor-related), extracellular domain, Gln26-Glu161 with Thr45Ala, UniProt Q9Y5U5.1; also called human GITR protein; source: FreeStyle 293F, transiently transfected, purified by protein A
As to the kind of experiment: SPR; Biacore T200; hGITR ECD hFc immobilised on a Series S CM5 chip; antibody 0, 3.125, 6.25, 12.5, 25 and 50 nM; association 180 s, dissociation 600 s. The note with it: both partners purified. A general note: Surface plasmon resonance follows binding to a sensor surface in real time, without labels.

Experiment [3] concerns the target T1, human GITR on 293F‐hGITR cells. The experiment is described as follows: flow cytometry on cells; 293F‐hGITR or 293F‐cynoGITR cells incubated with antibodies at 4 °C for 1 h, fluorescent anti-rat/human secondary antibody; EC50 of MFI curve. The note with it: one partner purified.
Experiment [4] deals with T3, cynoGITR on 293F‐cynoGITR cells (Macaca fascicularis).
T3 construct: also called 293F‐cGITR
T3 chain: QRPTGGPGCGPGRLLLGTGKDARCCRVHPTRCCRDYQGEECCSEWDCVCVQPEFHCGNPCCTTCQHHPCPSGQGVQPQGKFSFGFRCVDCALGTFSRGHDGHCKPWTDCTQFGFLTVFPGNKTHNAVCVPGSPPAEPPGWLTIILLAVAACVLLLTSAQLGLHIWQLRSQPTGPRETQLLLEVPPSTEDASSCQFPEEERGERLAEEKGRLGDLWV
Described as above. The conditions noted are these: one partner purified.

In a further experiment the target is T4, human OX40 ECD hFc (Homo sapiens (Human)., UniProt P43489).
T4 construct: human OX40, extracellular domain
T4 sequence (P43489 29-214): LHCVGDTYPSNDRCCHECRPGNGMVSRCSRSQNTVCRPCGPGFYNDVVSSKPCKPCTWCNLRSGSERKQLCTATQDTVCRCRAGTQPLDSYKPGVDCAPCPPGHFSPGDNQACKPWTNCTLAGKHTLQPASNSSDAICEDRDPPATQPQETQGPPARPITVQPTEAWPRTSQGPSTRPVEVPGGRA
As to the kind of experiment: ELISA; indirect ELISA; antigen hFc fusion protein coated on 96-well plates (1 μg·mL^−1 overnight at 4 °C in Fig. 3B), antibody added, detected with anti-rat IgG/hIgG-peroxidase antibody. The note with it: both partners purified. For orientation: ELISA stands for enzyme-linked immunosorbent assay.

For the next experiment, the target named is T5, 4‐1BB ECD hFc (Homo sapiens (Human)., UniProt Q07011).
T5 construct: 4-1BB, extracellular domain; called a paralogue of human GITR; The legend's word 'human' stands before OX40 only; human is likely
T5 sequence (Q07011 24-186): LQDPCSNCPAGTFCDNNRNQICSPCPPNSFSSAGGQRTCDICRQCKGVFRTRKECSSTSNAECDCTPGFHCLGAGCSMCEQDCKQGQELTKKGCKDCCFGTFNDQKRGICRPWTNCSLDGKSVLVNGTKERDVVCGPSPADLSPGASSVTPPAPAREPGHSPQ
Described as above. The conditions noted are these: both partners purified.

For experiment [5], the target named is T2, hGITR ECD hFc. The experiment is described as above. The note with it: both partners purified.
Experiment [6] deals with T6, cynoGITR ECD hFc (Macaca fascicularis).
T6 construct: cynomolgus GITR, extracellular domain, Gln20-Glu155, NCBI XP_005545180.1; also called cynoGITR protein; cGITR; source: FreeStyle 293F, transiently transfected, purified by protein A
T6 chain: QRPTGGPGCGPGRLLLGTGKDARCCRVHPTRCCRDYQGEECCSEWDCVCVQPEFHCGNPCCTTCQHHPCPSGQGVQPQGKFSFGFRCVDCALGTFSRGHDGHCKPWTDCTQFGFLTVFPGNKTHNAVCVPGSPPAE
Described as above. The note with it: both partners purified.

Experiment [7] addresses T2, hGITR ECD hFc. The description is as above. The note with it: both partners purified. The source holds these as a separate data set.
Experiment [8] concerns the target T6, cynoGITR ECD hFc. Described as above. The conditions noted are these: both partners purified.

We go through 4 molecules from PMC9340783, “Development of a fully human anti‐GITR antibody with potent antitumor activity using H2L2 mice” (FEBS Open Bio, 2022).

T1 sequence (Q9Y5U5 26-241): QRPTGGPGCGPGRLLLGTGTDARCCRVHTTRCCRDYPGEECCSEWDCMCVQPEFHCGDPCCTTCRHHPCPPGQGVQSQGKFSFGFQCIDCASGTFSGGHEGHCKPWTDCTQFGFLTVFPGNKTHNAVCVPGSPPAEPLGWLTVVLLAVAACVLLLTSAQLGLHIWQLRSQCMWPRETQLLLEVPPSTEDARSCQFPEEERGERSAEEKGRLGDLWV

B1: hab019e2 (antibody, V domains shown)
VH: QVQLVESGGGVVQPGRSLRLSCAASGFTFSSYGMHWVRQAPGKGLEWVAVIWYAGSRKFYADSVEGRFTISRDNSKNTLYLQMNSLRAEDTAVYYCARGGSLEGGFFYYGMDVWGQGTTVTVSS
VL: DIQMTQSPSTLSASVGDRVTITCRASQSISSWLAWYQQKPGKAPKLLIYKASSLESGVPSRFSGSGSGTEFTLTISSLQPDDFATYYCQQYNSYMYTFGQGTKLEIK
notes: 3503‐hab019‐VH(EG + NLA); positions not given; as the VL of m12 (3503‐hab019‐Vk); Whole antibody, human IgG1 heavy chain constant region, human kappa light chain constant region; also called hab19e2; source: FreeStyle 293F, transiently co-transfected, purified from culture supernatant
Consider B1, for which, in experiment [1], the “NF‐ĸB luciferase reporter assay, Crosslinking, EC50” value was determined as 7.69 nM. Also, the “NF‐ĸB luciferase reporter assay, Crosslinking, Top ratio” value in experiment [1] worked out at 13 fold. Further, the “NF‐ĸB luciferase reporter assay, No crosslinking, EC50” value in [1] was 0.275 nM. Moreover, the “NF‐ĸB luciferase reporter assay, No crosslinking, Top ratio” value in [1] turned out to be 8 fold. In the experiment with hGITR ECD hFc [2], this molecule had a Kd of 0.384 nM. The EC50 in [3] turned out to be 0.206 nM; in experiment [4], 0.29 nM; with hGITR ECD hFc [5], 0.093 nM; with cynoGITR ECD hFc [6], 0.089 nM. The binding result in the experiment with human OX40 ECD hFc and with 4‐1BB ECD hFc was “no binding” throughout.

B2: hab076 (antibody, V domains shown)
VH: QVQLVESGGGVVQPGRSLRLSCAASGFTFSSYGMHWVRQAPGKGLEWVAVIWYETSNKYYADSVKGRFTISRDNSKNTLYLQMNSLRAEDTAVYYCARYGASSGWYWYFDLWGRGTLVTVSS
VL: DIQLTQSPSFLSASVGDRVTITCRASQGISSYLAWYQQKPGKAPKLLIYAASTLQSGVPSRFSGSGSGTEFTLTISSLQPEDFATYCCQQLNSYPFTFGQGTKLEIK
notes: 3503‐hab076‐VH; 3503‐hab076‐Vk; Whole antibody, human IgG1 heavy chain constant region, human kappa light chain constant region; source: FreeStyle 293F, transiently co-transfected, purified from culture supernatant
In the case of B2, in experiment [1], the “NF‐ĸB luciferase reporter assay, Crosslinking, EC50” value amounted to 6.07 nM; the “NF‐ĸB luciferase reporter assay, Crosslinking, Top ratio” value is 20 fold; the “NF‐ĸB luciferase reporter assay, No crosslinking, EC50” value was determined as 0.157 nM; the “NF‐ĸB luciferase reporter assay, No crosslinking, Top ratio” value was found to be 9 fold. This molecule gave a Kd in the experiment with hGITR ECD hFc [2] of 1.03 nM. Besides, in [3], the midpoint of the response, the EC50, lay at 0.179 nM. The molecule also gave a concentration for a half-maximal effect (EC50) in [4] of 0.418 nM. Besides, the EC50 in the experiment with hGITR ECD hFc [5] came to 0.091 nM. This molecule displayed an EC50 with cynoGITR ECD hFc [6] of 0.101 nM.

B3: hab070e1 (antibody, V domains shown)
VH: QVQLVESGGGVVQPGRSLRLSCAASGFTFSSYGMHWVRQAPGKGLEWVAVIWYETSNKFYVDSVKGRFTISRDNSKNTLYLQMNSLRAEDTAVYYCARYGASSGWYWYFDLWGRGTLVTVSS
VL: DIQLTQSPSFLSASVGDRVTITCRASQGISSFLAWYQQKPGKAPKLLIYAASTLQSGVPSRFSGSGSGTEFTLTISSLQPEDFATYYCQQLNSYPFTFGQGTKLEIK
notes: as the VH of m14 (3503‐hab070‐VH); 3503‐hab070‐Vk(C2Y); the substitution is against the VL of m14 (Cys in FR3 of VL); position not given; Whole antibody, human IgG1 heavy chain constant region, human kappa light chain constant region; also called hab70e1; source: FreeStyle 293F, transiently co-transfected, purified from culture supernatant
With B3, the “NF‐ĸB luciferase reporter assay, Crosslinking, EC50” value in [1] came to 6.78 nM. Also, in experiment [1], the “NF‐ĸB luciferase reporter assay, Crosslinking, Top ratio” value was determined as 12 fold. In addition, the “NF‐ĸB luciferase reporter assay, No crosslinking, EC50” value in experiment [1] was 0.262 nM. In [1], the “NF‐ĸB luciferase reporter assay, No crosslinking, Top ratio” value was 7 fold. In the experiment with hGITR ECD hFc [2], this molecule showed a dissociation constant Kd of 0.537 nM. For the same molecule, the half-maximal effective concentration (EC50) in [3] was determined as 0.164 nM; in experiment [4] it was 0.268 nM; with hGITR ECD hFc [5], 0.101 nM; in the experiment with cynoGITR ECD hFc [6], 0.111 nM. For the same molecule, the binding result with human OX40 ECD hFc and with 4‐1BB ECD hFc was “no binding” each time.

B4: Tab9H6v3 (antibody, V domains shown)
VH: QVQLVESGGGVVQPGRSLRLSCVASGFTFSSYGMHWIRQAPGKGLEWVAVIWYEGSNKYYAESVKGRFTISRDNSKNTLYLQMNSLRAEDTAVYYCARGGRLGKDYYSGMDVWGQGTTVTVSS
VL: DIQMTQSPSSLSASVGDRVTITCRASQGIRNDLGWYQQKPGKAPKRLIYATSSLQSGVPSRFSGSGSGTEFTLTISSLQPEDFATYYCLQHNTYPWTFGQGTKVEIK
notes: heavy chain variable region of clone 9H6v3 (AMGEN INC.); light chain variable region of clone 9H6v3 (AMGEN INC.)
With B4, in experiment [1], the “NF‐ĸB luciferase reporter assay, Crosslinking, EC50” value worked out at 8.86 nM. For the same molecule, the “NF‐ĸB luciferase reporter assay, Crosslinking, Top ratio” value in experiment [1] worked out at 14 fold. Moreover, the “NF‐ĸB luciferase reporter assay, No crosslinking, EC50” value in experiment [1] is 0.787 nM. Moreover, in experiment [1], the “NF‐ĸB luciferase reporter assay, No crosslinking, Top ratio” value turned out to be 11 fold. Further, the Kd with hGITR ECD hFc [2] was determined as 0.135 nM. Moreover, the EC50 in experiment [3] is 0.184 nM; in [4] it was 0.235 nM; with hGITR ECD hFc [7], 0.0709 nM; with cynoGITR ECD hFc [8], 0.0637 nM; with hGITR ECD hFc [5] it was 0.088 nM; in the experiment with cynoGITR ECD hFc [6], 0.09 nM.

The Kd is the free concentration of one partner at which half of the binding sites on the other are occupied at equilibrium, for simple one-to-one binding. Low values mean a tighter complex, high ones a looser complex. As a reminder, the EC50 is the concentration at which the effect is half-maximal.
